Molecular target: HBsAg (patient serum)
Test: Jacalin-bead fractionation of patient serum, HBsAg measured by CLIA

Substance: Jacalin lectin (from UniProt P18670 1-133)
- share of the total serum HBsAg that binds to Jacalin: 5%

From US20210283246A1
